Results as given in the supplement of paper PMC10065799, “High-throughput profiling of sequence recognition by tyrosine kinases and SH2 domains using bacterial peptide display” (eLife, 2023).

What was measured:
Grb2 SH2 = Grb2 SH2 (UniProt P62993); experiment: SH2 binding enrichment of the phosphorylated peptide, bacterial display (enrichment ratio); higher = better substrate or ligand; peptides without Tyr show the background
c-Src SH2 = experiment: as above
SHP2-C SH2 = experiment: as above
FGFR1 = FGFR1 (UniProt P11362); experiment: phosphorylation enrichment, bacterial display (enrichment ratio); higher = better substrate or ligand; peptides without Tyr show the background
Fyn = Fyn (UniProt P06241); experiment: as above
MERTK = MERTK (UniProt Q12866); experiment: as above
c-Src = experiment: as above
EPHB2 = EPHB2 (UniProt P29323); experiment: as above
Hck = Hck (UniProt P08631); experiment: as above
EPHB1 = EPHB1 (UniProt P54762); experiment: as above
Jak2 = Jak2 (UniProt O60674); experiment: as above
AncSZ = experiment: as above
FGFR3 = FGFR3 (UniProt P22607); experiment: as above
Fes = Fes (UniProt P07332); experiment: as above
Fer (mouse) = experiment: as above
c-Abl (mouse) = experiment: as above
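Throughout, for SH2 binding enrichment of the phosphorylated peptide, bacterial display: peptide library displayed on the E. coli surface as eCPX fusions, selected cells deep-sequenced, score is each peptide's frequency after selection divided by its frequency in the input.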
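Throughout, for phosphorylation enrichment, bacterial display: 11-residue human phosphosite peptides and single-mutation variants displayed on the E. coli surface, counted by deep sequencing, each peptide's frequency after selection divided by its frequency in the unselected input library; frequency after pTyr selection over input frequency; kinase dosed for 20-30% of maximal phosphorylation in three min.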

EPHB2, sequence (P29323 whole entry, looked up): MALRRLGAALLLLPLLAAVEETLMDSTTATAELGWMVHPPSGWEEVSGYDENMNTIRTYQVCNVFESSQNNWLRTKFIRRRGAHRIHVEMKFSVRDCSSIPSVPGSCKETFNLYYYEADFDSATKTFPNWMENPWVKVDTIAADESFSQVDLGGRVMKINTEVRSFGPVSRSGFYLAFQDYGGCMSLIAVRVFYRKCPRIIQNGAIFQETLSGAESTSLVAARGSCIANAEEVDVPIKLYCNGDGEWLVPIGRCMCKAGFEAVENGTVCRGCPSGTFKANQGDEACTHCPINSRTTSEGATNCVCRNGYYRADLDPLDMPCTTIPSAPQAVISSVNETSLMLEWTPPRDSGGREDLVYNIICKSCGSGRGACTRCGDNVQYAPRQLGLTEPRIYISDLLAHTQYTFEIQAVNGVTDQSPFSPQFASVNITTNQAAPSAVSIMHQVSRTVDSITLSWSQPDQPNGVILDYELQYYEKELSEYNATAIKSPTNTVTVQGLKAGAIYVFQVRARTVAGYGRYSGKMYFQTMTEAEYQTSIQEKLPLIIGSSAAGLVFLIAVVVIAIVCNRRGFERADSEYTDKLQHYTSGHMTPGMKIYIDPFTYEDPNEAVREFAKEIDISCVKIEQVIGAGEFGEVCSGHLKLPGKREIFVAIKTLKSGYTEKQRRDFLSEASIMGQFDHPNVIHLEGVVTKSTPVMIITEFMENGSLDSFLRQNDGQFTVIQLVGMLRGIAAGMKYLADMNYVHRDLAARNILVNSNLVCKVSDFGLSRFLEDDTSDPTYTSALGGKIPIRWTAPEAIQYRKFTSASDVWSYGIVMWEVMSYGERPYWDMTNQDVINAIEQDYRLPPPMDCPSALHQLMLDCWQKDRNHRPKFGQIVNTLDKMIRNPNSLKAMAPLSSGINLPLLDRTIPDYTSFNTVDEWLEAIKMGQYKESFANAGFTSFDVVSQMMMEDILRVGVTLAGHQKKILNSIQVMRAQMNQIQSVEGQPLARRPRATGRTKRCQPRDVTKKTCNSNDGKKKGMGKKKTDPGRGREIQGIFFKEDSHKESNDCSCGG
MERTK, sequence (Q12866 whole entry, looked up): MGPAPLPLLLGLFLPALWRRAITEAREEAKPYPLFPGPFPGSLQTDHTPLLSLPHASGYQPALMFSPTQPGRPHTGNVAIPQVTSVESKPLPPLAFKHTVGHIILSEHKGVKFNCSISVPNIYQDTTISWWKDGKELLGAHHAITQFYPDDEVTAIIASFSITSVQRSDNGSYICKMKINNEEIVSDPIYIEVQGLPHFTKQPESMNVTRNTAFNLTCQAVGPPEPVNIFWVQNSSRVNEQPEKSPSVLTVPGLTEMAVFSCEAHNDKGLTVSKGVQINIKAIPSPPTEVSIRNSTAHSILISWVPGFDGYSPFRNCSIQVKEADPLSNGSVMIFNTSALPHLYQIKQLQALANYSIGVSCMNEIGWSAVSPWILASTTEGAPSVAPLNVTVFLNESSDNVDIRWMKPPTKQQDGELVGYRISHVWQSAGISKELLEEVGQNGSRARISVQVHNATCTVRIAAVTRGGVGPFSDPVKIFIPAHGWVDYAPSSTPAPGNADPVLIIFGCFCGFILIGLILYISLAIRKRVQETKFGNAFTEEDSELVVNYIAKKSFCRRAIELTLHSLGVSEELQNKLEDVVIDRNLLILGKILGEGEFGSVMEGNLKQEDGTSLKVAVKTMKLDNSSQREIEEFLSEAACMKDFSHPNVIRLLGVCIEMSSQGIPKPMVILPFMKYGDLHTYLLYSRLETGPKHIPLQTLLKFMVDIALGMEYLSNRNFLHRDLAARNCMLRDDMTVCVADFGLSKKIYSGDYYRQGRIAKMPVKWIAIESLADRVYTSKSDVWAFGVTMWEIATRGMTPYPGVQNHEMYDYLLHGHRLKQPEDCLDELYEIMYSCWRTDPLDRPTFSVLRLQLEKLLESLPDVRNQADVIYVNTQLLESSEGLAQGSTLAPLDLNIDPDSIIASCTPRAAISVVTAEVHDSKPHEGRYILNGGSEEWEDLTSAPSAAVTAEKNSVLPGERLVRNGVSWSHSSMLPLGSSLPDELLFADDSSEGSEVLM
Fes, sequence (P07332 whole entry, looked up): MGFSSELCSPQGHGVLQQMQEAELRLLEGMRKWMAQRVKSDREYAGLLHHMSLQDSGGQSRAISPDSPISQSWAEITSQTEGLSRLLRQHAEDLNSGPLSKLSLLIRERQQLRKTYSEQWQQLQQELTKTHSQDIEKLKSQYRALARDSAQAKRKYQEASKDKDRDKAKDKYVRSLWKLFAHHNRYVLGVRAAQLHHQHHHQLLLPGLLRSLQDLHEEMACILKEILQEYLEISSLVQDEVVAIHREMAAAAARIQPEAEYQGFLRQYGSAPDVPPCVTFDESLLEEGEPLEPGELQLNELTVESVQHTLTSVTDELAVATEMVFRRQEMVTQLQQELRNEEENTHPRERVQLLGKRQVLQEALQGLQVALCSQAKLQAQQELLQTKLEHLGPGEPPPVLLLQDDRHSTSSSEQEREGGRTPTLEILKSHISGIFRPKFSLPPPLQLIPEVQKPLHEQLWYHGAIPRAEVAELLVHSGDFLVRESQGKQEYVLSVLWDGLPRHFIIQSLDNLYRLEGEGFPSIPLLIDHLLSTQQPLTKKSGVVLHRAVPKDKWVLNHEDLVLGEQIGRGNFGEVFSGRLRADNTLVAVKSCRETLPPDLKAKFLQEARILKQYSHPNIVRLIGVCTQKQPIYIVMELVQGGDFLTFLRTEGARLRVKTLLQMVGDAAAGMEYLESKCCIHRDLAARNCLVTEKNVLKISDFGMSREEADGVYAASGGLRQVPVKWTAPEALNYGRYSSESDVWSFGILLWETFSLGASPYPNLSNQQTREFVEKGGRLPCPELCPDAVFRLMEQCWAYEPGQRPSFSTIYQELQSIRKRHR
Hck, sequence (P08631 whole entry, looked up): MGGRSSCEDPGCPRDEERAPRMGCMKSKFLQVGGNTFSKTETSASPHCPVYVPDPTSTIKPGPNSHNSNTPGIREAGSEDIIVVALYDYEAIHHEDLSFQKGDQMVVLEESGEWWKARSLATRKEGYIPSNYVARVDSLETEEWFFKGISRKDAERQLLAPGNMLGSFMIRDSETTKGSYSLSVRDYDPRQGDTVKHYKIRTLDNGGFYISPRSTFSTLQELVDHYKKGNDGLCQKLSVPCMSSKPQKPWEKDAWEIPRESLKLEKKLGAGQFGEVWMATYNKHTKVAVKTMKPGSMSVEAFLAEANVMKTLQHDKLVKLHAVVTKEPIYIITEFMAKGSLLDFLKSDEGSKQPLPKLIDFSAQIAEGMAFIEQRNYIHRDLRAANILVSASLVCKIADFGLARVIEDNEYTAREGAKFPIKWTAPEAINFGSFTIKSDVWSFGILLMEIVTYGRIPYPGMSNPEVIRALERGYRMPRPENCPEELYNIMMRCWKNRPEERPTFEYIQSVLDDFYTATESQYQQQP
Fyn, sequence (P06241 whole entry, looked up): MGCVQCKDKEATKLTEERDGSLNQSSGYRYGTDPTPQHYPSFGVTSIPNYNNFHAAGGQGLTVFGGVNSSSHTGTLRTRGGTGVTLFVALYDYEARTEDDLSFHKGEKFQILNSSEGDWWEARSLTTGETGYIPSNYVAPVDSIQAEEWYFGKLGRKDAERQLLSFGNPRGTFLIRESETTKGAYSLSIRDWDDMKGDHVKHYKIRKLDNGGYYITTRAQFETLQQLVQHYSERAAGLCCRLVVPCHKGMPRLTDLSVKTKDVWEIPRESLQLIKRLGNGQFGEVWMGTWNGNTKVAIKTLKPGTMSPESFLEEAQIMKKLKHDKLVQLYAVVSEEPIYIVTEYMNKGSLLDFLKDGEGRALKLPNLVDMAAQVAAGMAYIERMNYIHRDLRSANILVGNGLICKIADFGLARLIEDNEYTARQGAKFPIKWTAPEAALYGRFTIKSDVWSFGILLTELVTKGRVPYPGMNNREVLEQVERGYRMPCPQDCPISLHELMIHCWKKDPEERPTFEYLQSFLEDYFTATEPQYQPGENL
FGFR1, sequence (P11362 whole entry, looked up): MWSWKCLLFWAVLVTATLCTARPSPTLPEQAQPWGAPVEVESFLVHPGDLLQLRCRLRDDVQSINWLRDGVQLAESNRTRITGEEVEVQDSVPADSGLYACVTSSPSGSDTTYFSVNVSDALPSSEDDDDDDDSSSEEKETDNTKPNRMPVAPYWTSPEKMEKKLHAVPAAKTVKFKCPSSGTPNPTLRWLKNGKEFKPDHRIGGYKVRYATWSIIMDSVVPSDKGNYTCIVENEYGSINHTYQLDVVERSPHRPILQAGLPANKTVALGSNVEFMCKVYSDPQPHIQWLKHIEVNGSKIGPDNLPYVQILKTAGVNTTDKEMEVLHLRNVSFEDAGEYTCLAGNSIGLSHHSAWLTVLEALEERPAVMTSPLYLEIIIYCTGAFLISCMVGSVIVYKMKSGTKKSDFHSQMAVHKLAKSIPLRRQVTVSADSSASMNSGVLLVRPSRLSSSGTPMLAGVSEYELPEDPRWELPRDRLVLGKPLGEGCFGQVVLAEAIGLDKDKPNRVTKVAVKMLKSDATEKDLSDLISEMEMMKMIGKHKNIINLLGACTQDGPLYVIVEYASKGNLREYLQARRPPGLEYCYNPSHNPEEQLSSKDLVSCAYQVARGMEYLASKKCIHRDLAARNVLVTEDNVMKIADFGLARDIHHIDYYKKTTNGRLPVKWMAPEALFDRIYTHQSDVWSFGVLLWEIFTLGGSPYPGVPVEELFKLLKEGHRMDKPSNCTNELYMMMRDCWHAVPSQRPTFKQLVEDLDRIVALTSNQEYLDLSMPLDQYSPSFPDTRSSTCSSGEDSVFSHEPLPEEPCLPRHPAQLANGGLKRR

SH2 binding enrichment (Grb2 SH2) | SH2 binding enrichment (c-Src SH2) | SH2 binding enrichment (SHP2-C SH2) | Sequence | phosphorylation enrichment (FGFR1) | phosphorylation enrichment (Fyn) | phosphorylation enrichment (MERTK) | phosphorylation enrichment (c-Src) | phosphorylation enrichment (EPHB2) | phosphorylation enrichment (Hck) | phosphorylation enrichment (EPHB1) | phosphorylation enrichment (Jak2) | phosphorylation enrichment (AncSZ) | phosphorylation enrichment (FGFR3) | phosphorylation enrichment (Fes) | phosphorylation enrichment (Fer (mouse)) | phosphorylation enrichment (c-Abl (mouse))
0.809 | 0.523 | 0.852 | VKFLGYPPPEI [KDR_Y357_A352V_YF] | 0.398 | 0.443 | 0.402 | 0.371 | 0.618 | 0.369 | 0.452 | 0.744 | 0.692 | 0.555 | 0.974 | 0.427 | 0.688
0.846 | 0.427 | 0.647 | VKPENYRRPDI [VHL_Y175_L178P] | 0.388 | 0.333 | 0.371 | 0.436 | 0.468 | 0.364 | 0.335 | 0.525 | 0.566 | 0.526 | 0.699 | 0.344 | 0.63
0.95 | 0.882 | 0.927 | VNTTLYEKFTF [TEK_Y1108_YF] | 0.456 | 2.48 | 4.71 | 2.89 | 0.748 | 4.13 | 1.1 | 0.891 | 0.886 | 0.677 | 0.989 | 8.38 | 0.976
0.602 | 0.535 | 0.546 | VPLATYMRIFK [RPL21_Y30_YF] | 0.408 | 0.462 | 0.35 | 0.486 | 0.425 | 0.537 | 0.406 | 0.614 | 0.733 | 0.501 | 0.881 | 0.406 | 0.477
0.888 | 0.58 | 0.757 | VSVVDYVEPSP [TXNRD2_Y70_A66S] | 0.804 | 0.494 | 0.485 | 0.489 | 0.547 | 0.565 | 0.595 | 0.725 | 1.21 | 0.629 | 1.05 | 0.521 | 0.576
1.64 | 1.04 | 1.64 | VVFIKYLPEWT [PSEN1_Y240_L235V] | 0.424 | 0.335 | 0.343 | 0.414 | 0.532 | 0.44 | 0.595 | 1.22 | 1.01 | 0.773 | 1.23 | 0.538 | 0.81
0.876 | 0.688 | 0.818 | WEQELYSQLVF [WAS_Y102_YF] | 4.85 | 8.54 | 8.62 | 6.47 | 11.6 | 7.88 | 8.61 | 1.38 | 2.24 | 4.51 | 2.71 | 14.4 | 1.81
0.743 | 0.941 | 0.768 | WFPSTYVEEDE [VAV3_Y842] | 0.636 | 0.51 | 0.454 | 0.549 | 0.656 | 0.741 | 0.789 | 1.42 | 1.43 | 0.81 | 1.5 | 0.638 | 0.875
0.809 | 1.03 | 0.775 | WGLRSYYETSK [MAGED2_Y448] | 0.508 | 0.4 | 0.298 | 0.298 | 0.549 | 0.448 | 0.754 | 0.972 | 0.958 | 0.733 | 1.12 | 0.464 | 0.661
1.21 | 0.923 | 1.12 | WIPIQYLIISE [NOG_Y222_P223L] | 0.58 | 0.474 | 0.436 | 0.457 | 0.723 | 0.573 | 0.624 | 1.2 | 1.2 | 0.838 | 1.43 | 0.666 | 0.858
1.11 | 0.59 | 0.668 | WPQKLYNNFVN [MYO5C_Y526_L522P] | 0.445 | 0.439 | 0.505 | 0.626 | 0.546 | 0.528 | 0.407 | 0.725 | 0.795 | 0.518 | 0.884 | 0.377 | 0.687
0.676 | 0.469 | 0.676 | WSFNLYDINKD [KCNIP3_Y174_A170S] | 0.566 | 1.07 | 0.796 | 0.88 | 0.875 | 1.29 | 0.894 | 1.12 | 1.36 | 0.819 | 1.45 | 1.01 | 0.68
0.881 | 0.591 | 0.727 | YEREQYADRAR [RBM4_Y355] | 0.495 | 0.37 | 0.29 | 0.338 | 0.432 | 0.439 | 0.383 | 0.575 | 0.701 | 0.534 | 0.707 | 0.441 | 0.531
0.963 | 0.919 | 1.05 | YGAHNHHPLPV [OAT_Y55_Y55H] | 0.408 | 0.415 | 0.516 | 0.506 | 0.38 | 0.458 | 0.413 | 0.62 | 0.538 | 0.473 | 0.696 | 0.693 | 0.671
0.891 | 0.896 | 0.735 | YSTDCYRVGGH [NTRK2_Y707_Y706C] | 0.594 | 0.438 | 3.67 | 0.415 | 0.555 | 0.45 | 0.554 | 0.639 | 0.733 | 0.683 | 0.827 | 0.414 | 0.79

More lines, now with the values behind:

Sequence | SH2 binding enrichment (Grb2 SH2) | SH2 binding enrichment (c-Src SH2) | SH2 binding enrichment (SHP2-C SH2) | phosphorylation enrichment (FGFR1) | phosphorylation enrichment (Fyn) | phosphorylation enrichment (MERTK) | phosphorylation enrichment (c-Src) | phosphorylation enrichment (EPHB2) | phosphorylation enrichment (Hck) | phosphorylation enrichment (EPHB1) | phosphorylation enrichment (Jak2) | phosphorylation enrichment (AncSZ) | phosphorylation enrichment (FGFR3) | phosphorylation enrichment (Fes) | phosphorylation enrichment (Fer (mouse)) | phosphorylation enrichment (c-Abl (mouse))
VKKKLDEEIDQ [CYP17A1_Y329_Y329D] | 1.03 | 0.705 | 0.853 | 0.578 | 0.483 | 0.523 | 0.441 | 0.555 | 0.488 | 0.505 | 0.782 | 0.839 | 0.579 | 0.792 | 0.422 | 0.693
VSNFNYFFHRE [KCNA1_Y413_YF] | 1.35 | 0.79 | 1.39 | 0.685 | 0.454 | 0.45 | 0.445 | 0.509 | 0.506 | 0.642 | 0.969 | 1.12 | 0.885 | 1.22 | 0.472 | 0.831
VSRGRYRPEEC [B4GALT4_Y113_Q116E] | 0.699 | 0.428 | 0.465 | 0.439 | 0.472 | 0.614 | 0.562 | 0.51 | 0.522 | 0.443 | 0.561 | 0.692 | 0.524 | 0.512 | 0.52 | 0.568
VSTAVYKRFAS [BEST1_Y148_P152A] | 0.644 | 0.49 | 0.681 | 0.507 | 0.449 | 0.489 | 0.555 | 0.647 | 0.511 | 0.693 | 0.725 | 0.715 | 0.48 | 0.77 | 0.398 | 0.716
VTQEQYELFCE [CBL_Y368_YF] | 0.943 | 0.668 | 0.747 | 0.543 | 0.599 | 0.624 | 0.744 | 0.848 | 0.646 | 0.86 | 1.54 | 1.4 | 0.957 | 1.24 | 0.737 | 3.12
VTSLKYSTPPF [BRIP1_Y916_S919P_YF] | 0.929 | 0.492 | 0.56 | 0.491 | 0.472 | 0.457 | 0.436 | 0.493 | 0.52 | 0.342 | 0.599 | 0.607 | 0.517 | 0.841 | 0.38 | 0.595
VVQGLYKSMPK [KBTBD2_Y250] | 0.752 | 0.429 | 0.79 | 0.384 | 0.34 | 0.532 | 0.403 | 0.477 | 0.438 | 0.386 | 0.516 | 0.53 | 0.537 | 0.611 | 0.328 | 0.492
WKEIEYEVVPD [CPS1_Y634_R638P] | 0.837 | 0.48 | 0.861 | 0.7 | 0.483 | 0.494 | 0.479 | 0.961 | 0.559 | 0.636 | 1.18 | 1.43 | 0.774 | 1.18 | 0.554 | 0.639
WVYNHYRCIIW [BRCA2_Y2624_W2626C] | 0.94 | 0.58 | 1 | 0.562 | 0.515 | 0.659 | 0.481 | 0.645 | 0.538 | 0.806 | 1.4 | 1.28 | 0.891 | 1.63 | 0.569 | 1.18
YAFQLYDLDPD [CHP2_Y123_R127P] | 0.986 | 1.28 | 1.71 | 1.65 | 4.7 | 2.01 | 5 | 0.998 | 2.56 | 1.52 | 1.32 | 1.66 | 1.37 | 1.37 | 0.916 | 0.78
YDEYRYRSFIK [CFTR_Y517_V520F] | 0.901 | 1.21 | 0.849 | 0.495 | 2.33 | 0.518 | 1.62 | 0.596 | 1.51 | 0.54 | 1.14 | 1.06 | 0.679 | 0.946 | 0.64 | 0.957
YETDYYQKGGK [INSR_Y1190_R1191Q] | 0.863 | 1.1 | 1.16 | 0.983 | 0.519 | 0.664 | 0.459 | 0.615 | 0.639 | 0.63 | 0.716 | 1.34 | 0.907 | 0.919 | 0.573 | 0.526
YETSHYPASPD [CTNND2_Y1217] | 0.739 | 0.76 | 0.723 | 0.454 | 0.434 | 0.42 | 0.489 | 0.512 | 0.421 | 0.382 | 0.7 | 0.858 | 0.626 | 0.771 | 0.484 | 0.528
YKTPIYPYLLP [PLD2_Y578_T577I] | 0.953 | 2.4 | 1.04 | 2.43 | 0.787 | 2.08 | 0.707 | 0.744 | 0.628 | 0.816 | 1.51 | 1.14 | 1.53 | 0.857 | 0.695 | 0.899
YSMGCYEIYLG [HMGCL_Y198_S201Y] | 0.713 | 0.627 | 0.641 | 2.06 | 6.34 | 4.69 | 5.79 | 8.68 | 4.95 | 4.78 | 1.41 | 4.43 | 2.19 | 2.02 | 5.57 | 1.37
YVGGFYGGCNE [CTSC_Y352] | 0.77 | 1.23 | 0.651 | 0.639 | 0.864 | 0.682 | 0.786 | 0.553 | 0.984 | 0.54 | 1.06 | 1.17 | 0.962 | 1.14 | 0.786 | 0.869
YYHCTYKQRMI [CLEC12A_Y242_K244Q] | 1.41 | 1.41 | 0.953 | 9.07 | 0.693 | 3.68 | 0.773 | 0.527 | 1.1 | 0.63 | 1.73 | 1.64 | 7.01 | 1.01 | 0.452 | 1.4
